Laboratory results from patent publication US20110098218A1 (AGENCY FOR SCIENCE TECHNOLOGY AND RESEARCH, published 2011).

Molecular target: T1, Flag-tagged mouse STAT3 (pXJ40-Flag-mSTAT3) (mouse, UniProt P42227 1-770, limits assumed, phosphorylated after leptin treatment (phospho-STAT3); the site is not given)
T1 construct: also called phospho-STAT3; Flag-tagged STAT3; not shown: Flag tag
Assay: coimmunoprecipitation

T1 sequence (P42227 whole entry): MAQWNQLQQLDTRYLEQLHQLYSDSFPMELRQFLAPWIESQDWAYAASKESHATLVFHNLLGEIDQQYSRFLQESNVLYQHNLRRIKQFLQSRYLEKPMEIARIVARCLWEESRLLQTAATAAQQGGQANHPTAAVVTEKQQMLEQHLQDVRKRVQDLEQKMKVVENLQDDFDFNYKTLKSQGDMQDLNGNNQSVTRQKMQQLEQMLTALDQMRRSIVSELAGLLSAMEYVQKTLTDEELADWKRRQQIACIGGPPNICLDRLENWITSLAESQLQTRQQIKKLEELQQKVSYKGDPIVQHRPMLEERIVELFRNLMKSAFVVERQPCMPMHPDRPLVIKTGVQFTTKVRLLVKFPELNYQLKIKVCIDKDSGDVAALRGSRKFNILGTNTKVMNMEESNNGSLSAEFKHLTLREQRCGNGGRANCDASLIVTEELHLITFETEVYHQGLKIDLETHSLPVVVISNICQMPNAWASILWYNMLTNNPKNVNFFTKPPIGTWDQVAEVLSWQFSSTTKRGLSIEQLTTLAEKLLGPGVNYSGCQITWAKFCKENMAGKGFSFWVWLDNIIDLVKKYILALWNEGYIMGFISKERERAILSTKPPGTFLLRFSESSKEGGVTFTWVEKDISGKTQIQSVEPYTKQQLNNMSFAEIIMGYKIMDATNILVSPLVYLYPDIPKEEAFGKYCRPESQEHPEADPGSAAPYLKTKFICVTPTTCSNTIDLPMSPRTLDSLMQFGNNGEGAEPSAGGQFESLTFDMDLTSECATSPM

B1: FoxO1^(1-123) (other)
chain: MAEAPQVVETDPDFEPLPRQRSCTWPLPRPEFNQSNSTTSSPAPSGGAAANPDAAASLASASAVSTDFMSNLSLLEESEDFARAPGCVAVAAAAAASRGLCGDFQGPEAGCVHPAPPQPPPTG
- binding result: no binding

B2: FoxO1^(1-123)-(168-652) (other, UniProt Q9R1E0 1-123, looked up)
chain: MAEAPQVVETDPDFEPLPRQRSCTWPLPRPEFNQSNSTTSSPAPSGGAAANPDAAASLASASAVSTDFMSNLSLLEESEDFARAPGCVAVAAAAAASRGLCGDFQGPEAGCVHPAPPQPPPTGKAIESSAEKRLTLSQIYEWMVKSVPYFKDKGDSNSSAGWKNSIRHNLSLHSKFIRVQNEGTGKSSWWMLNPEGGKSGKSPRRRAASMDNNSKFAKSRGRAAKKKASLQSGQEGPGDSPGSQFSKWPASPGSHSNDDFDNWSTFRPRTSSNASTISGRLSPIMTEQDDLGDGDVHSLVYPPSAAKMASTLPSLSEISNPENMENLLDNLNLLSSPTSLTVSTQSSPGSMMQQTPCYSFAPPNTSLNSPSPNYSKYTYGQSSMSPLPQMPMQTLQDSKSSYGGLNQYNCAPGLLKELLTSDSPPHNDIMSPVDPGVAQPNSRVLGQNVMMGPNSVMPAYGSQASHNKMMNPSSHTHPGHAQQTASVNGRTLPHVVNTMPHTSAMNRLTPVKTPLQVPLSHPMQMSALGSYSSVSSCNGYGRMGVLHQEKLPSDLDGMFIERLDCDMESIIRNDLMDGDTLDFNFDNVLPNQSFPHSVKTTTHSWVSG
- binding result: no binding
